{"source": "patent US20250283164", "key": {"[1]": {"tested_on": "GFP", "assay": "FP", "details": "negative control, little affinity"}, "[2]": {"tested_on": "BamHI", "assay": "FP", "details": "negative control, little affinity"}}}
{"substance": "random-sequence RNA", "values": [{"measurement": "Kd", "setting": "[1]", "result": "> 4", "unit": "µM"}, {"measurement": "Kd", "setting": "[2]", "result": "> 4", "unit": "µM"}]}
